Source: article PMC2133975

B1: axonin-1 purified from the ocular vitreous fluid of chicken embryos, conjugated to Covaspheres (natural protein)
chain: QSGMRSYGPVFEEQPAHTLFPEGSAEEKVTLTCRARANPPATYRWKMNGTELKMGPDSRYRLVAGDLVISNPVKAKDAGSYQCVATNARGTVVSREASLRFGFLQEFSAEERDPVKITEGWGVMFTCSPPPHYPALSYRWLLNEFPNFIPADGRRFVSQTTGNLYIAKTEASDLGNYSCFATSHIDFITKSVFSKFSQLSLAAEDARQYAPSIKAKFPADTYALTGQMVTLECFAFGNPVPQIKWRKLDGSQTSKWLSSEPLLHIQNVDFEDEGTYECEAENIKGRDTYQGRIIIHAQPDWLDVITDTEADIGSDLRWSCVASGKPRPAVRWLRDGQPLASQNRIEVSGGELRFSKLVLEDSGMYQCVAENKHGTVYASAELTVQALAPDFRLNPVKRLIPAARSGKVIIPCQPRAAPKATVLWTKGTELLTNSSRVTITADGTLILQNISKSDEGKYTCFAENFMGKANSTGILSVRDATKITLAPSSADINVGENLTLQCHASHDPTMDLTFTWSLDDFPIDLDKSEGHYRRASVKEAVGDLAIVNAQLKHSGRYTCTAQTVVDSTSESATLTVRGPPGPPGGVVVRDIGDTTVQLSWSRGFDNHSPIARYSIEARTLLSNKWKQMRTNPVNIEGNAETAQVVNLIPWMDYEFRVLASNILGVGEPSLPSSKIRTKEAAPTVAPSGLGGGGGAPNELIINWTPTLRDYQNGDGFGYILSFRKKGTQGWLTARVPHAESLHYVYRNESIGPYTPFEVKIKAYNRKGEGPESLTAIVYSAEEEPKVAPFRVTAKAVLSSEMDVSWEPVEQGDMTGVLLGYEIRYWKDGDKEEAADRVRTAGLVTSAHVTGLNPNTKYHVSVRAYNRAGAGPPSPSTNITTTKPPPRRPPGNISWTLTGSTVTIKWDPVVAQADESAVTGYKMLYRQDSHSAPTLYLASKSRIDIPVPEDFTHAFVQIRVTGPGGDGTPAEVHIVRNSGTSMMVEDSVTRPVPHAAIITTNSLAMVALIRYLEL

Experiments:
[1] = molecular target: NgCAM, recombinant, expressed on the surface of COS-7 cells (chicken); assay: binding of protein-conjugated fluorescent microspheres
[2] = molecular target: axonin-1, recombinant, expressed on the surface of COS-7 cells (chicken) (UniProt P28685); assay: as above

Molecule	percent of expressing cells that bound Covaspheres [1]	percent of expressing cells that bound Covaspheres [2]
NgCAM purified from chicken brain membranes, conjugated to Covaspheres (from UniProt Q03696 21-1266) (natural protein)	61%	15%
B1	53%	
